Molecular target: the molecule itself
Assay: crystal structure

B1: R47A hACMSD (enzyme)
chain: not shown
Question: Does B1 bind?
Answer: binds

Reference: paper PMC4289673 (Proteins, 2014)
